Data published in patent US20190352639A1 (University of Washington, published 2019).
Numbering of substitutions follows the chain as printed.

B1: Myr-I3-01-myc-p6 (designed binder)
chain: MGARASGSKSGSGSDSGSKMEELFKKHKIVAVLRANSVEEAKKKALAVFLGGVHLIEITFTVPDADTVIKELSFLKEMGAIIGAGTVTSVEQCRKAVESGAEFIVSPHLDEEISQFCKEKGVFYMPGVMTPTELVKAMKLGHTILKLFPGEVVGPQFVKAMKGPFPNVKFVPTGGVNLDNVCEWFKAGVLAVGVGSALVKGTPVEVAEKAKAFVEKIRGCTEQKLISEEDLQSRPEPTAPPEESFRSGVETTTPPQKQEPIDKELYPLTSLRSLFGNDPSSQ
modifications: N-terminal myristoylation motif (6 N-terminal residues of HIV Gag); myristoylated in mammalian cells, not in E. coli
notes: Fusion of the HIV Gag N-terminal six residues, a linker, I3-01, a myc tag and the HIV Gag p6 domain; also called Myr-I3-01-p6
B2: EPN-01 (designed binder)
chain: B1 chain with M20I
modifications: N-terminal myristoylation motif
notes: Myr-I3-01-myc-p6 with the methionine at the N-terminal end of the I3-01 O domain mutated to isoleucine

Tests used:
[1] = target: the molecule itself; assay: size exclusion chromatography and negative stain electron microscopy, self-assembly
[2] = target: the molecule itself; assay: electron cryo-tomography of vesicles from transfected HEK293T cells, self-assembly

Protein	binding result [1]	binding result [2]
B1	binds	
B2		binds
